We go through one substance from US20230050846A1, “TREATMENT OF HEPATIC AND CARDIOVASCULAR DISORDERS” (LIFESEARCH, priority 2019, published 2023).

For this experiment, the target named is cell surface F1Fo-ATPase (human). Kind of experiment: cell-based or functional assay.

Regarding “apoA-I purified from human plasma (from UniProt P02647 25-267) (ligand)”, the HDL endocytosis by HepG2 cells (HDL-Alexa568 uptake), apoA-I 10 µg/mL, versus non-stimulated cells turned out to be 45%.
